Assay results taken from publication PMC12516561 (2025).

B1: iRhom2 wild type (HA-tagged) [human] / 14-3-3 epsilon, endogenous [human (endogenous in HEK293T)] (parent)
chain 1: MASADKNGGSVSSVSSSRLQSRKPPNLSITIPPPEKETQAPGEQDSMLPEGFQNRRLKKSQPRTWAAHTTACPPSFLPKRKNPAYLKSVSLQEPRSRWQESSEKRPGFRRQASLSQSIRKGAAQWFGVSGDWEGQRQQWQRRSLHHCSMRYGRLKASCQRDLELPSQEAPSFQGTESPKPCKMPKIVDPLARGRAFRHPEEMDRPHAPHPPLTPGVLSLTSFTSVRSGYSHLPRRKRMSVAHMSLQAAAALLKGRSVLDATGQRCRVVKRSFAFPSFLEEDVVDGADTFDSSFFSKEEMSSMPDDVFESPPLSASYFRGIPHSASPVSPDGVQIPLKEYGRAPVPGPRRGKRIASKVKHFAFDRKKRHYGLGVVGNWLNRSYRRSISSTVQRQLESFDSHRPYFTYWLTFVHVIITLLVICTYGIAPVGFAQHVTTQLVLRNKGVYESVKYIQQENFWVGPSSIDLIHLGAKFSPCIRKDGQIEQLVLRERDLERDSGCCVQNDHSGCIQTQRKDCSETLATFVKWQDDTGPPMDKSDLGQKRTSGAVCHQDPRTCEEPASSGAHIWPDDITKWPICTEQARSNHTGFLHMDCEIKGRPCCIGTKGSCEITTREYCEFMHGYFHEEATLCSQVHCLDKVCGLLPFLNPEVPDQFYRLWLSLFLHAGVVHCLVSVVFQMTILRDLEKLAGWHRIAIIFILSGITGNLASAIFLPYRAEVGPAGSQFGLLACLFVELFQSWPLLERPWKAFLNLSAIVLFLFICGLLPWIDNIAHIFGFLSGLLLAFAFLPYITFGTSDKYRKRALILVSLLAFAGLFAALVLWLYIYPINWPWIEHLTCFPFTSRFCEKYELDQVLH
chain 2: MDDREDLVYQAKLAEQAERYDEMVESMKKVAGMDVELTVEERNLLSVAYKNVIGARRASWRIISSIEQKEENKGGEDKLKMIREYRQMVETELKLICCDILDVLDKHLIPAANTGESKVFYYKMKGDYHRYLAEFATGNDRKEAAENSLVAYKAASDIAMTELPPTHPIRLGLALNFSVFYYEILNSPDRACRLAKAAFDDAIAELDTLSEESYKDSTLIMQLLRDNLTLWTSDMQGDGEEQNKEALQDVEDENQ
B2: iRhom2 wild type (HA-tagged) [human] / beta-COP, endogenous [human (endogenous in HEK293T)] (parent)
chain 1: B1 chain 1
chain 2: MTAAENVCYTLINVPMDSEPPSEISLKNDLEKGDVKSKTEALKKVIIMILNGEKLPGLLMTIIRFVLPLQDHTIKKLLLVFWEIVPKTTPDGRLLHEMILVCDAYRKDLQHPNEFIRGSTLRFLCKLKEAELLEPLMPAIRACLEHRHSYVRRNAVLAIYTIYRNFEHLIPDAPELIHDFLVNEKDASCKRNAFMMLIHADQDRALDYLSTCIDQVQTFGDILQLVIVELIYKVCHANPSERARFIRCIYNLLQSSSPAVKYEAAGTLVTLSSAPTAIKAAAQCYIDLIIKESDNNVKLIVLDRLIELKEHPAHERVLQDLVMDILRVLSTPDLEVRKKTLQLALDLVSSRNVEELVIVLKKEVIKTNNVSEHEDTDKYRQLLVRTLHSCSVRFPDMAANVIPVLMEFLSDNNEAAAADVLEFVREAIQRFDNLRMLIVEKMLEVFHAIKSVKIYRGALWILGEYCSTKEDIQSVMTEIRRSLGEIPIVESEIKKEAGELKPEEEITVGPVQKLVTEMGTYATQSALSSSRPTKKEEDRPPLRGFLLDGDFFVAASLATTLTKIALRYVALVQEKKKQNSFVAEAMLLMATILHLGKSSLPKKPITDDDVDRISLCLKVLSECSPLMNDIFNKECRQSLSHMLSAKLEEEKLSQKKESEKRNVTVQPDDPISFMQLTAKNEMNCKEDQFQLSLLAAMGNTQRKEAADPLASKLNKVTQLTGFSDPVYAEAYVHVNQYDIVLDVLVVNQTSDTLQNCTLELATLGDLKLVEKPSPLTLAPHDFANIKANVKVASTENGIIFGNIVYDVSGAASDRNCVVLSDIHIDIMDYIQPATCTDAEFRQMWAEFEWENKVTVNTNMVDLNDYLQHILKSTNMKCLTPEKALSGYCGFMAANLYARSIFGEDALANVSIEKPIHQGPDAAVTGHIRIRAKSQGMALSLGDKINLSQKKTSI

Variants of: B1
Assay: co-immunoprecipitation (HA-IP) with western blot quantification
Conditions: with 14-3-3 epsilon, iRhom1/2 DKO HEK293T cells, three independent experiments, read off a plot

ratio to parent	Variant
1.3	chain 1 P233A R234A R235A K236A R237A M238A
0.92	chain 1 S239A
2.1	chain 1 P233A R234A R235A K236A R237A M238A S239A

Variants of: B2
Assay: as above
Conditions: iRhom1/2 DKO HEK293T cells, three independent experiments, read off a plot

ratio to parent	Variant
1.05	chain 1 P233A R234A R235A K236A R237A M238A S239A
1.15	chain 1 P233A R234A R235A K236A R237A M238A
0.98	chain 1 S239A
